Test [1] addresses T1, human LLT1 (Lectin-like transcript 1), full length (human, UniProt Q9UHP7 1-191).
T1 construct: Expressed on transfected HEK293T, Hela, C1R and P815 cells; The background says LLT1 is a homodimer on the cell surface; also called LLT1-pIRES2-EGFP transfected HEK293T cells
T1 sequence: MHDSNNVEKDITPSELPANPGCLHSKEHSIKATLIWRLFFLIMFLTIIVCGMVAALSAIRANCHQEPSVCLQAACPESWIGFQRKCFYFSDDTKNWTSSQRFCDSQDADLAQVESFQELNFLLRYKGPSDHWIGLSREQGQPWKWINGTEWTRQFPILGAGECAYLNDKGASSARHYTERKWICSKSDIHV
The test is described as follows: flow cytometry, LLT1 multimer on LLT1-transfected HEK293T cells. The protocol:
(§1) Flow cytometry using the LLT1-Fc-ProteinA-biotin-Streptavidin-APC multimer (LLT1-multimer) was performed to identify the receptor of LLT1.

In the next test the target is T2, human CD161 (NKR-P1A) (human, UniProt Q12918 1-225).
T2 construct: Native on polyclonal human NK and T cells in the staining and functional assays; The background calls CD161 a disulfide-bond homodimer; also called CD161 receptor; CD161-pIRES2-EGFP transfected HEK293T cells
T2 sequence: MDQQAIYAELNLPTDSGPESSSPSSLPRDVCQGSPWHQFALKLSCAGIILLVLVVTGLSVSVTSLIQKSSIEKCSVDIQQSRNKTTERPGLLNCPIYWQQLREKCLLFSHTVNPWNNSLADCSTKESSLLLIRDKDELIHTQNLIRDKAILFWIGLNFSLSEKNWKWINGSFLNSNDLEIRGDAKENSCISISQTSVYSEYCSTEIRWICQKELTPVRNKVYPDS
As to the kind of experiment: flow cytometry, LLT1-Fc multimer on CD161-transfected HEK293T cells. How it is done:
as §1

B1: LLT1-Fc-ProteinA-biotin-Streptavidin-APC multimer (Fc fusion)
chain: RANCHQEPSVCLQAACPESWIGFQRKCFYFSDDTKNWTSSQRFCDSQDADLAQVESFQELNFLLRYKGPSDHWIGLSREQGQPWKWINGTEWTRQFPILGAGECAYLNDKGASSARHYTERKWICSKSDIHV
notes: also called LLT1-multimer; LLT1 multimer; not shown: Fc portion of human IgG1
As to B1, the binding result in test [1] is listed as “no binding”; with human CD161 (NKR-P1A), “binds”.

The values are drawn from US20090074756A1 (published 2009).
